Assay results published in patent US20250085287A1 (ADICET THERAPEUTICS, published 2025).
Blank lines part the entries; values can stand above or below the molecule they belong to.

Assays:
[1] = target: human GPC3 on tumor cells (membrane-associated GPC3 in FFPE xenograft tissue) (human) (UniProt P51654); assay: IHC (DAB), implanted HepG2 tumor (GPC3hi), 1G12 at 0.5 µg/mL
[2] = target: human GPC3 on tumor cells (membrane-associated GPC3 in FFPE xenograft tissue) (human) (UniProt P51654); assay: IHC on FFPE xenograft tumor tissue; HepG2, table row 6
[3] = target: human GPC3 on tumor cells (membrane-associated GPC3 in FFPE xenograft tissue) (human) (UniProt P51654); assay: IHC on FFPE xenograft tumor tissue; Hep3B, table row 3 (so in the source); does not fit the 90 and the 255 of the same row
[4] = target: human GPC3 on tumor cells (membrane-associated GPC3 in FFPE xenograft tissue) (human) (UniProt P51654); assay: IHC (DAB), implanted PP5 tumor (GPC3lo), bottom row of images, 1G12 at 0.5 µg/mL
[5] = target: human GPC3 on tumor cells (membrane-associated GPC3 in FFPE xenograft tissue) (human) (UniProt P51654); assay: IHC (DAB), implanted PP5 tumor (GPC3lo), middle row of images, 1G12 at 0.5 µg/mL
[6] = target: human GPC3 on tumor cells (membrane-associated GPC3 in FFPE xenograft tissue) (human) (UniProt P51654); assay: IHC on hepatocellular carcinoma
[7] = target: human GPC3 on tumor cells (membrane-associated GPC3 in FFPE xenograft tissue) (human) (UniProt P51654); assay: IHC on FFPE xenograft tumor tissue, Huh7
[8] = target: human GPC3 on tumor cells (membrane-associated GPC3 in FFPE xenograft tissue) (human) (UniProt P51654); assay: IHC on squamous cell carcinoma of the lung
[9] = target: human GPC3 on tumor cells (membrane-associated GPC3 in FFPE xenograft tissue) (human) (UniProt P51654); assay: IHC on FFPE xenograft tumor tissue, cytoplasmic staining; Hep3B, table row 2
[10] = target: human GPC3 on tumor cells (membrane-associated GPC3 in FFPE xenograft tissue) (human) (UniProt P51654); assay: IHC on FFPE xenograft tumor tissue; Hep3B, table row 2
[11] = target: human GPC3 on tumor cells (membrane-associated GPC3 in FFPE xenograft tissue) (human) (UniProt P51654); assay: IHC on FFPE xenograft tumor tissue, PP5 (PLC/PRF/5)
[12] = target: human GPC3 on tumor cells (membrane-associated GPC3 in FFPE xenograft tissue) (human) (UniProt P51654); assay: IHC on FFPE xenograft tumor tissue; Hep3B, table row 3
[13] = target: human GPC3 on tumor cells (membrane-associated GPC3 in FFPE xenograft tissue) (human) (UniProt P51654); assay: IHC on FFPE xenograft tumor tissue, HepG2
[14] = target: recombinant human glypican-3 (rhGPC3) (human) (UniProt P51654); assay: BLI; antibody captured on IgG-Fc capture biosensor, antigen as analyte, global 1:1 fit
Sequence of recombinant human glypican-3 (rhGPC3) (human) (P51654 25-559): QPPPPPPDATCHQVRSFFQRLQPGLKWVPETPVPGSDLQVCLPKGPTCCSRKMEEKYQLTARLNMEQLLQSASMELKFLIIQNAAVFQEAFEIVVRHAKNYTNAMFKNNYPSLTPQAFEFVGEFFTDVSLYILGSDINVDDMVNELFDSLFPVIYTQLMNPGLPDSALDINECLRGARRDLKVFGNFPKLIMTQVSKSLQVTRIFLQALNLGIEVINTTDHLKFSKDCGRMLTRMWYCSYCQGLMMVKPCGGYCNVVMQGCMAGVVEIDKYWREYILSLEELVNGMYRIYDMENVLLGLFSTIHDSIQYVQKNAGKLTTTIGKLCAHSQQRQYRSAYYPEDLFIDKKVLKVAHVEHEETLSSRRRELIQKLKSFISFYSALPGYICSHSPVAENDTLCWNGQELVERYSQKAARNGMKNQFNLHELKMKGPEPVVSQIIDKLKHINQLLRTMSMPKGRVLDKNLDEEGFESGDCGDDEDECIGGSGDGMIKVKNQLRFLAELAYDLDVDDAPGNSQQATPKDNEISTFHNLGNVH

[15] = target: human GPC3 on tumor cells (membrane-associated GPC3 in FFPE xenograft tissue) (human) (UniProt P51654); assay: IHC on FFPE xenograft tumor tissue, cytoplasmic staining; Hep3B, table row 3
[16] = target: human GPC3 on tumor cells (membrane-associated GPC3 in FFPE xenograft tissue) (human) (UniProt P51654); assay: IHC on FFPE xenograft tumor tissue; Hep3B, table row 1
[17] = target: human GPC3 on tumor cells (membrane-associated GPC3 in FFPE xenograft tissue) (human) (UniProt P51654); assay: IHC on FFPE xenograft tumor tissue, cytoplasmic staining; HepG2
[18] = target: human GPC3 on tumor cells (membrane-associated GPC3 in FFPE xenograft tissue) (human) (UniProt P51654); assay: IHC on FFPE xenograft tumor tissue; HepG2, table row 5
[19] = target: human GPC3 on tumor cells (membrane-associated GPC3 in FFPE xenograft tissue) (human) (UniProt P51654); assay: IHC on FFPE xenograft tumor tissue, Hep3B
[20] = target: human GPC3 on tumor cells (membrane-associated GPC3 in FFPE xenograft tissue) (human) (UniProt P51654); assay: IHC on FFPE xenograft tumor tissue, cytoplasmic staining; Hep3B, table row 1
[21] = target: human GPC3 on tumor cells (membrane-associated GPC3 in FFPE xenograft tissue) (human) (UniProt P51654); assay: IHC on FFPE xenograft tumor tissue; HepG2, table row 5 (so in the source); the four percentages of the row add up to 105
[22] = target: human GPC3 on tumor cells (membrane-associated GPC3 in FFPE xenograft tissue) (human) (UniProt P51654); assay: IHC on FFPE xenograft tumor tissue; HepG2, table row 4
[23] = target: recombinant human glypican-3 (rhGPC3) (human) (UniProt P51654); assay: BLI; antibody captured on IgG-Fc capture biosensor, antigen as analyte from 100 nM, 1:3 dilutions, global 1:1 fit
[24] = target: recombinant human glypican-3 (rhGPC3) (human) (UniProt P51654); assay: BLI; humanized GC33 captured on anti-human IgG-Fc biosensor, antigen as analyte from 100 nM, 1:3 dilutions, global 1:1 fit
[25] = target: T1, recombinant human glypican-5 (rhGPC5) (human, UniProt P78333 25-551, limits assumed); assay: western blot, primary antibody 1 ug/mL
T1 sequence (looked up): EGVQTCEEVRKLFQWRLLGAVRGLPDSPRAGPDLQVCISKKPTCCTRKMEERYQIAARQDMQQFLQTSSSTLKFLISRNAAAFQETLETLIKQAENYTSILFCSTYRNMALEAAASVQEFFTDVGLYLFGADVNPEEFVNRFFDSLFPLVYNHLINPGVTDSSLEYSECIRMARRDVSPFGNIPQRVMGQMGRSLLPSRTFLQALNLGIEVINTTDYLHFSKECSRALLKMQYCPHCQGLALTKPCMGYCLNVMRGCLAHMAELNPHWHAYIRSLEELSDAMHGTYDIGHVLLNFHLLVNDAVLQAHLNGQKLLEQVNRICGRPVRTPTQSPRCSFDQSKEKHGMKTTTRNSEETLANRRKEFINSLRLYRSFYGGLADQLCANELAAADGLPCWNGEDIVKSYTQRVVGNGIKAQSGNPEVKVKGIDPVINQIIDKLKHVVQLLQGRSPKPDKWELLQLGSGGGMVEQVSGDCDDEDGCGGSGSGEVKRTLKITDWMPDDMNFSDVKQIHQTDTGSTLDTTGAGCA

[26] = target: T2, recombinant human glypican-6 (rhGPC6) (human, UniProt Q9Y625 24-529, limits assumed); assay: western blot, primary antibody 1 ug/mL
T2 sequence (looked up): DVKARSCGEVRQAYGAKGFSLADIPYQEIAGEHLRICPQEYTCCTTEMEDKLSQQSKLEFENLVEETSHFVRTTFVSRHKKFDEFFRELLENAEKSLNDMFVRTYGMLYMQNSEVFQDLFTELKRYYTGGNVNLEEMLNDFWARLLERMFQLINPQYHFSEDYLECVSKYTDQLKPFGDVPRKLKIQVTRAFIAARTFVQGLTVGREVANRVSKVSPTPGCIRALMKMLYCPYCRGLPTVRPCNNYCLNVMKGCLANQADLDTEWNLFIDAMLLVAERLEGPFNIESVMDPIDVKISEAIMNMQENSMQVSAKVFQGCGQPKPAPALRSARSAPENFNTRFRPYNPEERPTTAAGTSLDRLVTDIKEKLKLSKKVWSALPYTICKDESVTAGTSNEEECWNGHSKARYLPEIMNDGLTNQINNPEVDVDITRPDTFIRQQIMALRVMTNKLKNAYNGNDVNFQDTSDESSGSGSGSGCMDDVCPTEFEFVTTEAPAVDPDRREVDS

[27] = target: recombinant human glypican-3 (rhGPC3) (human) (UniProt P51654); assay: BLI; antibody captured on anti-mouse IgG-Fc biosensor, antigen as analyte from 100 nM, 1:3 dilutions, global 1:1 fit
[28] = target: recombinant human glypican-3 (rhGPC3) (human) (UniProt P51654); assay: BLI; antibody captured on anti-mouse IgG-Fc biosensor, antigen as analyte, global 1:1 fit
[29] = target: recombinant human glypican-3 (rhGPC3) (human) (UniProt P51654); assay: BLI in-tandem cross-competition; biotinylated antigen on SA biosensor saturated with 150 nM GC33 (competitor), then 150 nM 204
[30] = target: recombinant human glypican-3 (rhGPC3) (human) (UniProt P51654); assay: BLI in-tandem cross-competition; biotinylated antigen on SA biosensor saturated with 150 nM 204 (self-blocking), then 150 nM 204
[31] = target: recombinant human glypican-3 (rhGPC3) (human) (UniProt P51654); assay: BLI in-tandem cross-competition; buffer only, no saturating antibody (maximal binding reference)

Sequence of human GPC3 on tumor cells (membrane-associated GPC3 in FFPE xenograft tissue) (human) (P51654 25-554 limits assumed): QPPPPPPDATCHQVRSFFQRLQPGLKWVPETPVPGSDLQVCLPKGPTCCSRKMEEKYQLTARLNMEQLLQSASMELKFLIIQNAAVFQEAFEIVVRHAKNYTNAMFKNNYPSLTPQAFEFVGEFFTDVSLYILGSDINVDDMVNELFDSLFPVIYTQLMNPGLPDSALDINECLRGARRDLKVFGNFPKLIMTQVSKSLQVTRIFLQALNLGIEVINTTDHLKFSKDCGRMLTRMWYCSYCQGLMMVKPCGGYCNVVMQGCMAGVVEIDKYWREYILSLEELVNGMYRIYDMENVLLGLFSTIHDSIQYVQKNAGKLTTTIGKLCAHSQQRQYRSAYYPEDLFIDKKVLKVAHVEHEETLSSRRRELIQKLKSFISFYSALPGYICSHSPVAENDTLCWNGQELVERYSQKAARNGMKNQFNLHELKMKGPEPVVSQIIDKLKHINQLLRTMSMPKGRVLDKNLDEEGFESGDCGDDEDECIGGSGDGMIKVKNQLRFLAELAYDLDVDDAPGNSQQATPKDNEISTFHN

Membrane-associated H-Score [1]: 285 | % Tumor Cells Positive - Membranous Staining, intensity 0 [2]: 5% | % Tumor Cells Positive - Membranous Staining, intensity 1+ [2]: 10% | % Tumor Cells Positive - Membranous Staining, intensity 2+ [2]: 5% | % Tumor Cells Positive - Membranous Staining, intensity 3+ [2]: 80% | H-Score (membranous staining) [2]: 260 | Mod/High Intensity (2/3+) [2]: 85% | % Tumor Cells Positive - Membranous Staining, intensity 3+ [3]: 20% | Membrane-associated H-Score [4]: 90 | Membrane-associated H-Score [5]: 130 | Membrane-bound GPC3 H-score [6]: 110 | Membrane-bound GPC3 H-score [7]: 80 | Membrane-bound GPC3 H-score [8]: 90 | Average Intensity of cytoplasmic staining [9]: 1 + | % Tumor Cells Positive - Membranous Staining, intensity 0 [10]: 0% | % Tumor Cells Positive - Membranous Staining, intensity 1+ [10]: 5% | % Tumor Cells Positive - Membranous Staining, intensity 2+ [10]: 15% | % Tumor Cells Positive - Membranous Staining, intensity 3+ [10]: 80% | H-Score (membranous staining) [10]: 275 | Mod/High Intensity (2/3+) [10]: 95% | Membrane-bound GPC3 H-score [11]: 75 | % Tumor Cells Positive - Membranous Staining, intensity 0 [12]: 5% | % Tumor Cells Positive - Membranous Staining, intensity 1+ [12]: 5% | % Tumor Cells Positive - Membranous Staining, intensity 2+ [12]: 20% | H-Score (membranous staining) [12]: 255 | Mod/High Intensity (2/3+) [12]: 90% | Membrane-bound GPC3 H-score [13]: 260 | koff [14]: 0.00053 s⁻¹ | kon [14]: 170000 M⁻¹ s⁻¹ | Average Intensity of cytoplasmic staining [15]: 1 + | % Tumor Cells Positive - Membranous Staining, intensity 0 [16]: 5% | % Tumor Cells Positive - Membranous Staining, intensity 1+ [16]: 5% | % Tumor Cells Positive - Membranous Staining, intensity 2+ [16]: 10% | % Tumor Cells Positive - Membranous Staining, intensity 3+ [16]: 80% | H-Score (membranous staining) [16]: 265 | Mod/High Intensity (2/3+) [16]: 90% | Average Intensity of cytoplasmic staining [17]: 2 + | % Tumor Cells Positive - Membranous Staining, intensity 0 [18]: 5% | % Tumor Cells Positive - Membranous Staining, intensity 1+ [18]: 10% | % Tumor Cells Positive - Membranous Staining, intensity 2+ [18]: 45% | H-Score (membranous staining) [18]: 220 | Mod/High Intensity (2/3+) [18]: 85% | Membrane-bound GPC3 H-score [19]: 265 | Average Intensity of cytoplasmic staining [20]: 1 + | % Tumor Cells Positive - Membranous Staining, intensity 3+ [21]: 45% | % Tumor Cells Positive - Membranous Staining, intensity 0 [22]: 5% | % Tumor Cells Positive - Membranous Staining, intensity 1+ [22]: 20% | % Tumor Cells Positive - Membranous Staining, intensity 2+ [22]: 50% | % Tumor Cells Positive - Membranous Staining, intensity 3+ [22]: 25% | H-Score (membranous staining) [22]: 195 | Mod/High Intensity (2/3+) [22]: 75% | Kd [23]: 3 nM
Molecule: 1G12 anti-GPC3 monoclonal antibody

Kd [24]: 1 nM
Molecule: GC33 anti-GPC3 antibody

binding result [25]: no binding | binding result [26]: no binding | Kd [27]: 2.5 nM | koff [28]: 0.0021 s⁻¹ | kon [28]: 820000 M⁻¹ s⁻¹ | % Binding of Competing Antibody [29]: 89.9% | % Binding of Competing Antibody [30]: 18.2% | % Binding of Competing Antibody [31]: 100%
B1: 204 monoclonal antibody (mouse anti-human GPC3) (antibody, IgG2b, V domains shown)
VH: EVQLQQSGPELVKPGASVKISCKTSGYTFTEYAMHWVKQSHGKSLEWIGGINPNNGVTTYNQRFKGKATLTVDKSSSTAYMELRSLTSEDSAVYYCARGLLWYAYWGQGTLVTVSA
VL: DIKMTQSPSSMYASLGERVTITCKASQDINSYLSWFQQKPGKSPKTLIYRANRLVDGVPSRFSGSGSGQDYSLTISSLEYEDMGIYYCLQYDEFPLTFGAGTKLELK
notes: also called GPC.204
